Assay results taken from publication PMC10397247.
Values belong to the binder of their own block, whether it stands above or below them.

Tests used:
Core_NNIN-es_KKEK = target: T1, Core_NNIN-es_KKEK; test: two-hybrid library CCmax; details: mean of both orientations;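 also: natural log of median RNA to DNA barcode read ratio; higher means stronger binding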
T1 chain: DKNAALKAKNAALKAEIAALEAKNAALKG

Core_NNNI-es_KEEE = target: T2, Core_NNNI-es_KEEE; test: two-hybrid library CCmax; details: mean of both orientations;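 also: natural log of median RNA to DNA barcode read ratio; higher means stronger binding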
T2 chain: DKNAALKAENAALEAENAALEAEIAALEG

Core_NNIN-es_KKKE = target: T3, Core_NNIN-es_KKKE; test: two-hybrid library CCmax; details: mean of both orientations;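 also: natural log of median RNA to DNA barcode read ratio; higher means stronger binding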
T3 chain: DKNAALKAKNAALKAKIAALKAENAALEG

4H491-bA = target: T4, 4H491-bA; test: two-hybrid library CCNG1;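 also: natural log of median RNA to DNA barcode read ratio; higher means stronger binding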
T4 chain: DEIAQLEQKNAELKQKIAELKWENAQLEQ

4H2883-bA = target: T5, 4H2883-bA; test: two-hybrid library CCNG1;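 also: natural log of median RNA to DNA barcode read ratio; higher means stronger binding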
T5 chain: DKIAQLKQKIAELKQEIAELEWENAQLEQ

4H2937-bA = target: T6, 4H2937-bA; test: two-hybrid library CCNG1;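 also: natural log of median RNA to DNA barcode read ratio; higher means stronger binding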
T6 chain: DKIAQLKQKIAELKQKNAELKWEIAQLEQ

4H19-bA = target: T7, 4H19-bA; test: two-hybrid library CCNG1
T7 chain: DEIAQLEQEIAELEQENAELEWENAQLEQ

4H342-bA = target: T8, 4H342-bA; test: two-hybrid library CCNG1
T8 chain: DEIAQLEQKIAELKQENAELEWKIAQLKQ

4H48-bA = target: T9, 4H48-bA; test: two-hybrid library CCNG1
T9 chain: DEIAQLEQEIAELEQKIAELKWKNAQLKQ

4H2696-bA = target: T10, 4H2696-bA; test: two-hybrid library CCNG1
T10 chain: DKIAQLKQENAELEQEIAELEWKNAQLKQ

4H2944-bA = target: T11, 4H2944-bA; test: two-hybrid library CCNG1
T11 chain: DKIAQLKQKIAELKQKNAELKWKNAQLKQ

4H932-bA = target: T12, 4H932-bA; test: two-hybrid library CCNG1
T12 chain: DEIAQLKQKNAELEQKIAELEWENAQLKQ

4H2253-bA = target: T13, 4H2253-bA; test: two-hybrid library CCNG1
T13 chain: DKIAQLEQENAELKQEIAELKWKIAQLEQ

4H4073-bN = target: T14, 4H4073-bN; test: two-hybrid library CCNG1
T14 chain: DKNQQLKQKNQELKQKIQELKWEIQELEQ

4H796-bA = target: T15, 4H796-bA; test: two-hybrid library CCNG1
T15 chain: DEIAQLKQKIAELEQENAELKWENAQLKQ

4H2760-bA = target: T16, 4H2760-bA; test: two-hybrid library CCNG1
T16 chain: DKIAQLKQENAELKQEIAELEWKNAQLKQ

4H2162-bA = target: T17, 4H2162-bA; test: two-hybrid library CCNG1
T17 chain: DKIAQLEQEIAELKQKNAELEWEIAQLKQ

4H2518-bA = target: T18, 4H2518-bA; test: two-hybrid library CCNG1
T18 chain: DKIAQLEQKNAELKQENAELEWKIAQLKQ

4H3628-bA = target: T19, 4H3628-bA; test: two-hybrid library CCNG1
T19 chain: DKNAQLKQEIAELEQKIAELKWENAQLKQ

4H949-bA = target: T20, 4H949-bA; test: two-hybrid library CCNG1
T20 chain: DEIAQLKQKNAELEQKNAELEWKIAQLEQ

4H3364-bA = target: T21, 4H3364-bA; test: two-hybrid library CCNG1
T21 chain: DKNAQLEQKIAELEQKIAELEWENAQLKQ

4H2931-bA = target: T22, 4H2931-bA; test: two-hybrid library CCNG1
T22 chain: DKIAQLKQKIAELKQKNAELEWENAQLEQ

4H2444-bA = target: T23, 4H2444-bA; test: two-hybrid library CCNG1
T23 chain: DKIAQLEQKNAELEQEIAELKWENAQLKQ

4H3297-bA = target: T24, 4H3297-bA; test: two-hybrid library CCNG1
T24 chain: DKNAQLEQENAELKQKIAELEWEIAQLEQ

4H264-bA = target: T25, 4H264-bA; test: two-hybrid library CCNG1
T25 chain: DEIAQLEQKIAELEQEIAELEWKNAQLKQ

4H3381-bA = target: T26, 4H3381-bA; test: two-hybrid library CCNG1
T26 chain: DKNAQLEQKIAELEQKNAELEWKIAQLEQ

4H2585-bA = target: T27, 4H2585-bA; test: two-hybrid library CCNG1
T27 chain: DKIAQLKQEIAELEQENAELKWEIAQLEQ

4H349-bA = target: T28, 4H349-bA; test: two-hybrid library CCNG1
T28 chain: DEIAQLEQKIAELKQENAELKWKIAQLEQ

4H3041-bA = target: T29, 4H3041-bA; test: two-hybrid library CCNG1
T29 chain: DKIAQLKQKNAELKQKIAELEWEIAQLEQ

4H730-bA = target: T30, 4H730-bA; test: two-hybrid library CCNG1
T30 chain: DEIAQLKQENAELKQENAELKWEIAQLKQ

4H235-bA = target: T31, 4H235-bA; test: two-hybrid library CCNG1
T31 chain: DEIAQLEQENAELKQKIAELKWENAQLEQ

4H166-bA = target: T32, 4H166-bA; test: two-hybrid library CCNG1
T32 chain: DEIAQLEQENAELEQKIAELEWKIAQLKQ

4H56-bA = target: T33, 4H56-bA; test: two-hybrid library CCNG1
T33 chain: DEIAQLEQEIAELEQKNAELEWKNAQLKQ

4H2233-bA = target: T34, 4H2233-bA; test: two-hybrid library CCNG1
T34 chain: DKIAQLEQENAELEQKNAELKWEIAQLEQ

4H2859-bA = target: T35, 4H2859-bA; test: two-hybrid library CCNG1
T35 chain: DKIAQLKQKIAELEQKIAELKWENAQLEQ

4H2143-bA = target: T36, 4H2143-bA; test: two-hybrid library CCNG1
T36 chain: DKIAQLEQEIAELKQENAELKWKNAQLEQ

Core_NIIN-es_KKEK = target: T37, Core_NIIN-es_KKEK; test: two-hybrid library CCmax; details: mean of both orientations
T37 chain: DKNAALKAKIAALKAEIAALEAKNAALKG

Core_NIII-es_KEKK = target: T38, Core_NIII-es_KEKK; test: two-hybrid library CCmax; details: mean of both orientations
T38 chain: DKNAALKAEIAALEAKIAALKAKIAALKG

Core_NNIN-es_KKKK = target: T39, Core_NNIN-es_KKKK; test: two-hybrid library CCmax; details: mean of both orientations
T39 chain: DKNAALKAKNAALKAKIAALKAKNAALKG

Binder: DENAALEAENAALEAKIAALKAENAALEG [Core_NNIN-es_EEKE]
interaction score (Core_NNIN-es_KKEK): 2.2

Binder: DEIAQLEQEIAELEQENAELEWENAQLEQ [4H19-bA]
interaction score (4H491-bA): -1.22 | interaction score (4H2883-bA): -0.0858 | interaction score (4H2937-bA): 1.86 | interaction score (4H19-bA): -0.446 | interaction score (4H342-bA): -0.577 | interaction score (4H48-bA): -0.828 | interaction score (4H2696-bA): -1.13 | interaction score (4H2944-bA): 2.54

Binder: DEIAQLEQENAELEQKIAELEWKIAQLKQ [4H166-bA]
interaction score (4H932-bA): -0.303 | interaction score (4H2253-bA): 0.212 | interaction score (4H4073-bN): 1.76 | interaction score (4H796-bA): -0.288 | interaction score (4H2760-bA): 1.38 | interaction score (4H2162-bA): 0.273 | interaction score (4H2518-bA): 2.14 | interaction score (4H3628-bA): -0.111 | interaction score (4H949-bA): 0.655 | interaction score (4H3364-bA): -0.668 | interaction score (4H2931-bA): 1.56 | interaction score (4H2444-bA): 0.00294 | interaction score (4H3297-bA): 1.92 | interaction score (4H264-bA): 1.18 | interaction score (4H3381-bA): 0.0741 | interaction score (4H2585-bA): -0.344 | interaction score (4H349-bA): -0.678 | interaction score (4H3041-bA): 1.54 | interaction score (4H730-bA): -0.818 | interaction score (4H235-bA): 0.308 | interaction score (4H166-bA): 1.79 | interaction score (4H56-bA): -0.289 | interaction score (4H2233-bA): 0.472 | interaction score (4H2859-bA): 1.07 | interaction score (4H2143-bA): -0.442

Binder: DENAALEAENAALEAEIAALEAENAALEG [Core_NNIN-es_EEEE]
interaction score (Core_NNIN-es_KKKK): 1.83

Now from value to binder:

interaction score (Core_NNNI-es_KEEE): 1.91
Binder: DENAALEAKNAALKAKNAALKAKIAALKG [Core_NNNI-es_EKKK]

interaction score (Core_NNIN-es_KKKE): 2.07
Binder: DENAALEAENAALEAEIAALEAKNAALKG [Core_NNIN-es_EEEK]

interaction score (Core_NIIN-es_KKEK): 1.96
Binder: DENAALEAEIAALEAKIAALKAENAALEG [Core_NIIN-es_EEKE]

interaction score (Core_NIII-es_KEKK): 1.92
Binder: DENAALEAKIAALKAEIAALEAEIAALEG [Core_NIII-es_EKEE]
